Measurements reported in patent CN112300289A (UNIV CHINA PHARMA, dated 2021).

B1: RGD4C融合抗TNFα纳米抗体 N端-VHH-Linker-RGD4C-6HIS-C端 (VHH)
VHH: QVQLVESGGGLVQAGGSLRLSCTASGQTSSTADMGWFRQPPGKGREFVARISGIDGTTYYDEPVKGRFTISRDKAQNTVYLQMDSLKPEDTAVYYCRSPRYADQWSAYDYWGQGTQVTVSS
notes: also called V-L-R-H; RGD4C-anti-TNFα-Nanobody
B2: RGD4C融合抗TNFα纳米抗体 N端-RGD4C-Linker-6HIS-VHH-C端 (VHH)
VHH: B1 VHH
B3: RGD4C融合抗TNFα纳米抗体 N端-VHH-6HIS-Linker-RGD4C-C端 (VHH)
VHH: B1 VHH

What was measured:
整合素αvβ3 = target: T1, 整合素αvβ3 (human, UniProt P06756 31-1048; P05106 27-788); test: concluded from the MDA-MB-231 cell adhesion assay; no direct binding assay
T1 construct: whole, on cells; The adhesion assay used whole MDA-MB-231 cells; also called 整合素αvβ3受体; 玻连蛋白(Vitronectin,VN)受体
T1 sequence (P06756 31-1048, chain 1 of 2): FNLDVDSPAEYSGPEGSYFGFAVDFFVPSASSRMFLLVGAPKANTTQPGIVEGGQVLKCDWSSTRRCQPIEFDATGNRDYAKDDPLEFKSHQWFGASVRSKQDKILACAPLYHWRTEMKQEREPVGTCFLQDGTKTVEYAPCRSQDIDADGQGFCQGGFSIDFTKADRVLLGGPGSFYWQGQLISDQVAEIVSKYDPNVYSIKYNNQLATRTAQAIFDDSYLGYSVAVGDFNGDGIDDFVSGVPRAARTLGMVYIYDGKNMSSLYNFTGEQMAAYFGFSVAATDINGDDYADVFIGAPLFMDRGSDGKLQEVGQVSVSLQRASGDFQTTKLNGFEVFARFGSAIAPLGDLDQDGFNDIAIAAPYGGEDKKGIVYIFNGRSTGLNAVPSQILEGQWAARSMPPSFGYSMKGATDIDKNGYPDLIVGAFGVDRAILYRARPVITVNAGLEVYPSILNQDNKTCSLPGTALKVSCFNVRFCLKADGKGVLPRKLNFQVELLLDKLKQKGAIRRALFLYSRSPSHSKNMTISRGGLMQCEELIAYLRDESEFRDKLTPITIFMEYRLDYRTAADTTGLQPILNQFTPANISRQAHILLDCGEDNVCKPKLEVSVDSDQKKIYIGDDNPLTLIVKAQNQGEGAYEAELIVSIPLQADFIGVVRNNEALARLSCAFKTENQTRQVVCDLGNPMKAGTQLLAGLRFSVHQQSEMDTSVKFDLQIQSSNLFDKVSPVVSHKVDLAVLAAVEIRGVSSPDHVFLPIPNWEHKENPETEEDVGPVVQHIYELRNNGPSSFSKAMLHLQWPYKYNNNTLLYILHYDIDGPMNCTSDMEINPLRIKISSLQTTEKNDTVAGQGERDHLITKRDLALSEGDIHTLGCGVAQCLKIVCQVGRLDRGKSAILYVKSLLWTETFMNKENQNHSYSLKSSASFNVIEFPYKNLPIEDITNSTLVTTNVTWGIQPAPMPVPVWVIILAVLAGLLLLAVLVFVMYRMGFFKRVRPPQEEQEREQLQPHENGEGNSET
T1 sequence (P05106 27-788, chain 2 of 2): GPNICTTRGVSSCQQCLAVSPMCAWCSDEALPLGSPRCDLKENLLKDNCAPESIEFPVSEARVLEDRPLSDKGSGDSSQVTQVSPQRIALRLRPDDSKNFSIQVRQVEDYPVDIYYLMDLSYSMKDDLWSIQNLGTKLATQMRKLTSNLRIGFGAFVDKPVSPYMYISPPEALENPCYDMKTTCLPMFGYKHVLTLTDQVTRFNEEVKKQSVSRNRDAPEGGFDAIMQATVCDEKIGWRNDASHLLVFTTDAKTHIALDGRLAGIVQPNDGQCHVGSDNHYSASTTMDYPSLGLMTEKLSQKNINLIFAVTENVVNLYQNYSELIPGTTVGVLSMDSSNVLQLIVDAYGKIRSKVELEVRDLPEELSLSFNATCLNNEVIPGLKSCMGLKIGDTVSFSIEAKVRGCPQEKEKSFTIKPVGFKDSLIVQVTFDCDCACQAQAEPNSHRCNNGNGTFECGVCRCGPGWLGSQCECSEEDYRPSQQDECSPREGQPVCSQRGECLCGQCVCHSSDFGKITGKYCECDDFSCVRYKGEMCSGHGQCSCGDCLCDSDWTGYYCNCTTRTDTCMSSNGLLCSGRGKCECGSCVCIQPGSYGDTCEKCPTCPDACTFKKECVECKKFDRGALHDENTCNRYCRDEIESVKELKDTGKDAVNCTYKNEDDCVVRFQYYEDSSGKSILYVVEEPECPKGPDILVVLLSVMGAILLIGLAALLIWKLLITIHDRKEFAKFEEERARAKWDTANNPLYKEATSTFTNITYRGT

TNFα = test: cell-based or functional assay
Sequence of TNFα (P01375 77-233): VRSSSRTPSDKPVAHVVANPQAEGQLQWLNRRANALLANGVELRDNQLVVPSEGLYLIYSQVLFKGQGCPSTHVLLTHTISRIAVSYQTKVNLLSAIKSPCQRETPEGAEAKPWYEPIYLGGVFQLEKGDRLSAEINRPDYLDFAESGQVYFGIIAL

| Binder | binding result (整合素αvβ3) | IC50, inhibition of TNFα cytotoxicity on L929 cells (MTT) (TNFα) |
| --- | --- | --- |
| B1 | binds | 0.106 nM |
| B2 |  | 0.187 nM |
| B3 |  | 0.113 nM |
